According to article PMC10415282, “High resolution cryo-EM and crystallographic snapshots of the actinobacterial two-in-one 2-oxoglutarate dehydrogenase” (Nature Communications, 2023):

B2: Corynebacterium glutamicum OdhA, full-length (residues 1-1221) (enzyme, Corynebacterium glutamicum ATCC13032, UniProt Q8NRC3 1-1221, looked up)
chain: MSSASTFGQNAWLVDEMFQQFQKDPKSVDKEWRELFEAQGGPNTTPATTEAQPSAPKESAKPAPKAAPAAKAAPRVETKPADKTAPKAKESSVPQQPKLPEPGQTPIRGIFKSIAKNMDISLEIPTATSVRDMPARLMFENRAMVNDQLKRTRGGKISFTHIIGYAMVKAVMAHPDMNNSYDVIDGKPTLIVPEHINLGLAIDLPQKDGSRALVVAAIKETEKMNFSEFLAAYEDIVARSRKGKLTMDDYQGVTVSLTNPGGIGTRHSVPRLTKGQGTIIGVGSMDYPAEFQGASEDRLAELGVGKLVTITSTYDHRVIQGAVSGEFLRTMSRLLTDDSFWDEIFDAMNVPYTPMRWAQDVPNTGVDKNTRVMQLIEAYRSRGHLIADTNPLSWVQPGMPVPDHRDLDIETHNLTIWDLDRTFNVGGFGGKETMTLREVLSRLRAAYTLKVGSEYTHILDRDERTWLQDRLEAGMPKPTQAEQKYILQKLNAAEAFENFLQTKYVGQKRFSLEGAEALIPLMDSAIDTAAGQGLDEVVIGMPHRGRLNVLFNIVGKPLASIFNEFEGQMEQGQIGGSGDVKYHLGSEGQHLQMFGDGEIKVSLTANPSHLEAVNPVMEGIVRAKQDYLDKGVDGKTVVPLLLHGDAAFAGLGIVPETINLAKLRGYDVGGTIHIVVNNQIGFTTTPDSSRSMHYATDYAKAFGCPVFHVNGDDPEAVVWVGQLATEYRRRFGKDVFIDLVCYRLRGHNEADDPSMTQPKMYELITGRETVRAQYTEDLLGRGDLSNEDAEAVVRDFHDQMESVFNEVKEGGKKQAEAQTGITGSQKLPHGLETNISREELLELGQAFANTPEGFNYHPRVAPVAKKRVSSVTEGGIDWAWGELLAFGSLANSGRLVRLAGEDSRRGTFTQRHAVAIDPATAEEFNPLHELAQSKGNNGKFLVYNSALTEYAGMGFEYGYSVGNEDSIVAWEAQFGDFANGAQTIIDEYVSSGEAKWGQTSKLILLLPHGYEGQGPDHSSARIERFLQLCAEGSMTVAQPSTPANHFHLLRRHALSDLKRPLVIFTPKSMLRNKAAASAPEDFTEVTKFQSVINDPNVADAAKVKKVMLVSGKLYYELAKRKEKDGRDDIAIVRIEMLHPIPFNRISEALAGYPNAEEVLFVQDEPANQGPWPFYQEHLPELIPNMPKMRRVSRRAQSSTATGVAKVHQLEEKQLIDEAFEA
notes: OdhA (E2o succinyltransferase and E1o 2-oxoglutarate decarboxylase domains on one chain), C. glutamicum ATCC13032, Uniprot Q8NRC3, residues 1-1221; TEV site (ENLYFQG) between the vector's His6-tag and the N-terminus; In the maps the chain is traced from Pro102; also called corynebacterial OdhA; source: E. coli BL21(DE3), purified (Ni-NTA, TEV cleavage, SEC); not shown: His6, N-terminal, cleaved

Tests used:
OdhA = target: T1, OdhA (Corynebacterium glutamicum, UniProt Q8NRC3); assay: cryo-EM structure, […] Å; format: binding
T1 construct: full length residues 1-1221, E. coli BL21(DE3), N-terminal His6-TEV tag cleaved for cryo-EM (OdhA-His6 kept for SPR); homohexamer, ~800 kDa

OdhAΔ97 = target: T2, OdhAΔ97 (Corynebacterium glutamicum, UniProt Q8NRC3); assay: crystal structure, […] Å; format: binding; conditions: co-crystallised with 5 mM CoASH, pH 7.5; E2o acceptor site; pantothenate chain not traced
T2 construct: gene odhA; N-terminal truncation, residues 98-1221, E. coli BL21(DE3), His6-TEV tag cleaved; homohexamer

[1] = target: the molecule itself; assay: crystal structure; MsKGD (10 mg/ml, 2 mM ThDP, 5 mM MgCl2) co-crystallised with GarA at 1:1 molar ratio; 0.1 M bicine pH 8.0, 30% PEG550MME, 0.2 M NaCl; 4.6 Å
[2] = target: the molecule itself; assay: AUC; sedimentation velocity, 20 °C, 30,000 rpm, seven concentrations from 4 mg/ml to 0.0625 mg/ml, 20 mM Hepes pH 7.5, 500 mM NaCl
[3] = target: the molecule itself; assay: crystal structure; OdhAΔ97 (26 mg/ml) with 5 mM CoASH; 0.1 M Hepes-NaOH pH 7.5, 5% PEG 4000, 30% MPD; 2.5 Å; protomers related by crystallographic symmetry
[4] = target: B2; assay: cryo-EM structure; single particle, OdhA incubated with OdhI at molar ratio 1:10, then SEC (Superose 6 increase, 20 mM Hepes pH 7.5, 500 mM NaCl); D3 symmetry; 2.3 Å; conditions: both partners purified

## CC(C)(COP(=O)(O)OP(=O)(O)OC[C@H]1O[C@@H](n2cnc3c(N)ncnc32)[C@H](O)[C@@H]1OP(=O)(O)O)[C@@H](O)C(=O)NCCC(=O)NCCS [CoASH]
OdhA; E2o active site, out conformation, ThDP-Mg and acetyl-CoA also bound
  cryo-EM structure, 2.2 Å: the OdhA-CoASH complex shows the bound CoASH with the pantothenate chain not entering
OdhAΔ97
  crystal structure, 2.46 Å: we could model CoASH, which was added to the cocrystallization mixture, as bound

## CC(=O)SCCNC(=O)CCNC(=O)[C@H](O)C(C)(C)COP(=O)(O)OP(=O)(O)OC[C@H]1O[C@@H](n2cnc3c(N)ncnc32)[C@H](O)[C@@H]1OP(=O)(O)O [acetyl-CoA]
OdhA; allosteric, E1o domain pocket, no ligand added (co-purified from E. coli), activated conformation
  cryo-EM structure, 2.2 Å: show an acetyl-CoA molecule bound to E1o allosteric site which could be positioned unambiguously

B1: Mycobacterium smegmatis KGD, full-length (enzyme, UniProt A0R2B1 1-1227, looked up)
chain: MSSSPSPFGQNEWLVEEMYRKFRDDPSSVDPSWHEFLVDYSPEPTTDSASNGRTTTAAPVTPPTPAPAPAPEPKAAPKPAAKTEAKPAKPAKSATPAKGDESQILRGAAAAVVKNMNASLEVPTATSVRAIPAKLMIDNRVVINNHLKRTRGGKISFTHLLGYAIVQAVKKFPNMNRHFAVVDGKPTAITPAHTNLGLAIDLQGKDGNRSLVVAAIKRCETMRFGQFIAAYEDIVRRARDGKLTAEDFSGVTISLTNPGTLGTVHSVPRLMQGQGAIIGAGAMEYPAEFQGASEERIADLGIGKLITLTSTYDHRIIQGAESGDFLRTIHQLLLDDDFFDEIFRELGIPYEPVRWRTDNPDSIEDKNARVIELIAAYRNRGHLMADIDPLRLDNTRFRSHPDLDVNSHGLTLWDLDREFKVDGFAGVQRKKLRDILSVLRDAYCRHVGVEYTHILEPEQQRWIQERVETKHDKPTVAEQKYILSKLNAAEAFETFLQTKYVGQKRFSLEGAETVIPMMDAVIDQCAEHGLDEVVIAMPHRGRLNVLANIVGKPYSQIFSEFEGNLNPSQAHGSGDVKYHLGATGTYIQMFGDNDIEVSLTANPSHLEAVDPVLEGLVRAKQDLLDTGEEGSDNRFSVVPLMLHGDAAFAGQGVVAETLNLALLRGYRTGGTIHIVVNNQIGFTTAPTDSRSSEYCTDVAKMIGAPIFHVNGDDPEACAWVARLAVDFRQAFKKDVVIDMLCYRRRGHNEGDDPSMTQPYMYDVIDTKRGSRKAYTEALIGRGDISMKEAEDALRDYQGQLERVFNEVRELEKHEIEPSESVEADQQIPSKLATAVDKAMLQRIGDAHLALPEGFTVHPRVRPVLEKRREMAYEGRIDWAFAELLALGSLIAEGKLVRLSGQDTQRGTFTQRHAVIVDRKTGEEFTPLQLLATNPDGTPTGGKFLVYNSALSEFAAVGFEYGYSVGNPDAMVLWEAQFGDFVNGAQSIIDEFISSGEAKWGQLSDVVLLLPHGHEGQGPDHTSGRIERFLQLWAEGSMTIAMPSTPANYFHLLRRHGKDGIQRPLIVFTPKSMLRNKAAVSDIRDFTESKFRSVLEEPMYTDGEGDRNKVTRLLLTSGKIYYELAARKAKENREDVAIVRIEQLAPLPRRRLAETLDRYPNVKEKFWVQEEPANQGAWPSFGLTLPEILPDHFTGLKRISRRAMSAPSSGSSKVHAVEQQEILDTAFG
notes: KGD (two-in-one 2-oxoglutarate dehydrogenase, E2o and E1o domains on one chain), Mycobacterium smegmatis, full-length protein; Crystallised with 2 mM ThDP and 5 mM MgCl2; also called MsKGD; mycobacterial KGD; source: E. coli BL21(DE3)pLysS, purified as previously described
[1]
  stoichiometry N: 6

## B2
[2]
  stoichiometry N: 6

B3: OdhAΔ97 (C. glutamicum OdhA residues 98-1221) (domain or fragment, Corynebacterium glutamicum ATCC13032, UniProt Q8NRC3 98-1221, looked up)
chain: KLPEPGQTPIRGIFKSIAKNMDISLEIPTATSVRDMPARLMFENRAMVNDQLKRTRGGKISFTHIIGYAMVKAVMAHPDMNNSYDVIDGKPTLIVPEHINLGLAIDLPQKDGSRALVVAAIKETEKMNFSEFLAAYEDIVARSRKGKLTMDDYQGVTVSLTNPGGIGTRHSVPRLTKGQGTIIGVGSMDYPAEFQGASEDRLAELGVGKLVTITSTYDHRVIQGAVSGEFLRTMSRLLTDDSFWDEIFDAMNVPYTPMRWAQDVPNTGVDKNTRVMQLIEAYRSRGHLIADTNPLSWVQPGMPVPDHRDLDIETHNLTIWDLDRTFNVGGFGGKETMTLREVLSRLRAAYTLKVGSEYTHILDRDERTWLQDRLEAGMPKPTQAEQKYILQKLNAAEAFENFLQTKYVGQKRFSLEGAEALIPLMDSAIDTAAGQGLDEVVIGMPHRGRLNVLFNIVGKPLASIFNEFEGQMEQGQIGGSGDVKYHLGSEGQHLQMFGDGEIKVSLTANPSHLEAVNPVMEGIVRAKQDYLDKGVDGKTVVPLLLHGDAAFAGLGIVPETINLAKLRGYDVGGTIHIVVNNQIGFTTTPDSSRSMHYATDYAKAFGCPVFHVNGDDPEAVVWVGQLATEYRRRFGKDVFIDLVCYRLRGHNEADDPSMTQPKMYELITGRETVRAQYTEDLLGRGDLSNEDAEAVVRDFHDQMESVFNEVKEGGKKQAEAQTGITGSQKLPHGLETNISREELLELGQAFANTPEGFNYHPRVAPVAKKRVSSVTEGGIDWAWGELLAFGSLANSGRLVRLAGEDSRRGTFTQRHAVAIDPATAEEFNPLHELAQSKGNNGKFLVYNSALTEYAGMGFEYGYSVGNEDSIVAWEAQFGDFANGAQTIIDEYVSSGEAKWGQTSKLILLLPHGYEGQGPDHSSARIERFLQLCAEGSMTVAQPSTPANHFHLLRRHALSDLKRPLVIFTPKSMLRNKAAASAPEDFTEVTKFQSVINDPNVADAAKVKKVMLVSGKLYYELAKRKEKDGRDDIAIVRIEMLHPIPFNRISEALAGYPNAEEVLFVQDEPANQGPWPFYQEHLPELIPNMPKMRRVSRRAQSSTATGVAKVHQLEEKQLIDEAFEA
notes: OdhA, C. glutamicum ATCC13032, Uniprot Q8NRC3, residues 98-1221 (without the flexible N-terminal segment); Crystallised with 5 mM CoASH; source: E. coli BL21(DE3), purified (Ni-NTA, TEV cleavage, SEC); not shown: His6, N-terminal, cleaved
[3]
  stoichiometry N: 6

B4: Corynebacterium glutamicum OdhI (residues 1-143) (natural protein, Corynebacterium glutamicum ATCC13032, UniProt Q8NQJ3 1-143, looked up)
chain: MSDNNGTPEPQVETTSVFRADLLKEMESSTGTAPASTGAENLPAGSALLVVKRGPNAGARFLLDQPTTTAGRHPESDIFLDDVTVSRRHAEFRINEGEFEVVDVGSLNGTYVNREPRNAQVMQTGDEIQIGKFRLVFLAGPAE
notes: In the map only the FHA domain (Glu40-Ala142) is traceable; source: E. coli BL21(DE3), purified (Ni-NTA, TEV cleavage, SEC); not shown: His6, N-terminal, cleaved
[4]
  stoichiometry N: 1
